Data taken from US20250250314.

B1: MMP2 (protein)
chain: YNFFPRKPKWDKNQITYRIIGYTPDLDPETVDDAFARAFQVWSDVTPLRFSRIHDGEADIMINFGRWEHGDGYPFDGKDGLLAHAFAPGTGVGGDSHFDDDELWTLGEGQVVRVKYGNADGEYCKFPFLFNGKEYNSCTDTGRSDGFLWCSTTYNFEKDGKYGFCPHEALFTMGGNAEGQPCKFPFRFQGTSYDSCTTEGRTDGYRWCGTTEDYDRDKKYGFCPETAMSTVGGNSEGAPCVFPFTFLGNKYESCTSAGRSDGKMWCATTANYDDDRKWGFCPDQGYSLFLVAAHEFGHAMGLEHSQDPGALMAPIYTYTKNFRLSQDDIKGIQELYGASPDIDLGTGPTPTLGPVTPEICKQDIVFDGIAQIRGEIFFFKDRFIWRTVTPRDKPMGPLLVATFWPELPEKIDAVYEAPQEEKAVFFAGNEYWIYSASTLERGYPKPLTSLGLPPDVQRVDAAFNWSKNKKTYIFAGDKFWRYNEVKKKMDPGFPKLIADAWNAIPDNLDAVVDLQGGGHSYFFKGAYYLKLENQSLKSVKFGSIKSDWLGC
B2: Matrix Metalloproteinase 1 (protein)
chain: FVLTEGNPRWEQTHLTYRIENYTPDLPRADVDHAIEKAFQLWSNVTPLTFTKVSEGQADIMISFVRGDHRDNSPFDGPGGNLAHAFQPGPGIGGDAHFDEDERWTNNFREYNLHRVAAHELGHSLGLSHSTDIGALMYPSYTFSGDVQLAQDDIDGIQAIYGRSQNPVQPIGPQTPKACDSKLTFDAITTIRGEVMFFKDRFYMRTNPFYPEVELNFISVFWPQLPNGLEAAYEFADRDEVRFFKGNKYWAVQGQNVLHGYPKDIYSSFGFPRTVKHIDAALSEENTGKTYFFVANKYWRYDEYKRSMDPGYPKMIAHDFPGIGHKVDAVFMKDGFFYFFHGTRQYKFDPKTKRILTLQKANSWFNCRKN

Target: UCM12
Sequence (chain, as listed by the source, chain 1 of 3, other chains not shown): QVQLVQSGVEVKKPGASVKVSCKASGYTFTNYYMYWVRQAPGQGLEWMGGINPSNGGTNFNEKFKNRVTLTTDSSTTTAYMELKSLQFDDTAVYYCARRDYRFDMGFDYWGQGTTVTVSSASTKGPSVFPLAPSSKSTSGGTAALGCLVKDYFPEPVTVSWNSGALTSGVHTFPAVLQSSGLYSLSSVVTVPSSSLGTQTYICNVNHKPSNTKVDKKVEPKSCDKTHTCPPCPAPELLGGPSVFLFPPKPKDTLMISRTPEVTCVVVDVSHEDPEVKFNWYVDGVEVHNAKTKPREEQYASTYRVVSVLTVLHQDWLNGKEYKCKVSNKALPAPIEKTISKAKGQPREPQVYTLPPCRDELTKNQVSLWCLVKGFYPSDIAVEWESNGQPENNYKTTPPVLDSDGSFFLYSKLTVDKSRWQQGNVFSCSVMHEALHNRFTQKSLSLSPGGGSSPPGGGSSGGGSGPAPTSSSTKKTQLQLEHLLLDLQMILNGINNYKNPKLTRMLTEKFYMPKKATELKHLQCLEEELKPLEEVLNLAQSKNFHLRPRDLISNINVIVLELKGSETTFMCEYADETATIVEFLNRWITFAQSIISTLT
Sequence (chain, as listed by the source, chain 2 of 3, other chains not shown): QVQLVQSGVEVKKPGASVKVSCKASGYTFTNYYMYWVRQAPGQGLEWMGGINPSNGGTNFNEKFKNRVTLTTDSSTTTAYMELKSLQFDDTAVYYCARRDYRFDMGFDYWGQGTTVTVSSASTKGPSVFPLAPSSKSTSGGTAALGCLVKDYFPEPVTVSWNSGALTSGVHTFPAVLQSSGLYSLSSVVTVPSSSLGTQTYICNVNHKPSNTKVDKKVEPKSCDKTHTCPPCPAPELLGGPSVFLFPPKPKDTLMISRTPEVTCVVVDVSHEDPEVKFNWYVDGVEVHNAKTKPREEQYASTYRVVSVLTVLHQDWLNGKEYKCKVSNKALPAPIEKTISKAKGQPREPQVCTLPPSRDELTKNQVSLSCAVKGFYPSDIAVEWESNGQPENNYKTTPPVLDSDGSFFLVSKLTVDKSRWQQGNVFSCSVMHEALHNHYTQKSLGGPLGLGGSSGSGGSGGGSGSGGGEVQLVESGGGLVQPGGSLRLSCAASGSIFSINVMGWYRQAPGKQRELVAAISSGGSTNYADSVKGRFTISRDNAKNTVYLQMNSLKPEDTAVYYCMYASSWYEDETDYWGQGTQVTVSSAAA

Protein | kcat/Km [M⁻¹ s⁻¹]
B1 | 1900
B2 | 230
